As usually defined, the Kd is a measure of binding affinity in units of concentration. The low end stands for a tighter complex, the high end for a looser complex.

The data set deals with PE6 (Mycobacterium tuberculosis). The conditions noted are these: 10 mM Tris-HCl pH 7.4, 100 mM NaCl, 298 K (fluorescence titration).

Substance dsDNA (unspecified) yielded a Kd of 1400 nM.

Values taken from publication PMC8311496.
